Data published in patent publication US6995249, “Nucleic acid capable of binding specifically to Ras target protein” (Japan Science and Technology Corporation).
Residue numbers refer to the chain shown, from its start.

Tests used:
Raf-1 RBD (GST-RBD) [1] = molecular target: T1, Raf-1 RBD (GST-RBD) (UniProt P04049 P04049:51-131); test: filter; PBS + 5 mM MgCl2, 37 C; conditions: tags: GST fusion, expressed in E. coli; label: 5'-32P
Description: (§1) An RNA (4 nM) of which the 5'-terminus was labeled and 50 to 1,250 nM of GST-RBD were incubated in 600 µl of a binding buffer at 37° C. for 30 minutes. The culture was filtered with a nitrocellulose filter, and the radioactivity on the filter was measured. The Kd value was calculated using a software: Kalleider Graph (Bell, S. D., et al., (1998) J. Biol. Chem. 273, 14309–14314).

Raf-1 RBD (GST-RBD) [2] = molecular target: T1, Raf-1 RBD (GST-RBD); test: filter; scarcely bound; no inhibition of Ras binding at 12.5 uM; conditions: tags: GST fusion, expressed in E. coli; label: 32P
Raf-1 RBD (GST-RBD) [3] = molecular target: T1, Raf-1 RBD (GST-RBD); test: filter; group 1; value only in figure; PBS + 5 mM MgCl2, 37 C; conditions: tags: GST fusion, expressed in E. coli; label: 32P
Description: The interaction between the 10 RNAs among them and GST-RBD was examined by a binding assay using a nitrocellulose filter.
as §1

Raf-1 RBD (GST-RBD) [4] = molecular target: T1, Raf-1 RBD (GST-RBD); test: filter; group 1; percent bound only in figure; conditions: tags: GST fusion, expressed in E. coli; label: 32P

B1: RNA aptamer SEQ ID NO:26 (ssRNA)
RNA: GGGAGUGGAGGAAUUCAUCGAGGCAUGACCUCCCGUGGCAGUAGGGGUAAAAAUUAUCUUCCUACACUUCUCAUGCCUUAGCGACAGCAAGCUUCUGC
Raf-1 RBD (GST-RBD) [1]
  Kd: 295 nM

B2: clone 21.12 (ssRNA)
RNA: GGGAGAUCAGAAUAAACGCUCAAGCGACAAGCAGCAGAUAAAGUUGAGCGCAACGCCGCUACAGAACCAAAUUAACAUGUAUGUUCGACAUGAGGCCCCUGCAGGGCG
Raf-1 RBD (GST-RBD) [2]
  binding result: no binding

B3: clone 21.07 (ssRNA)
RNA: GGGAGAUCAGAAUAAACGCUCAAUUGACUCAAUGGCGUACAAUGGAUUCGUUCUCAUAACCAAAACCCUUACCCCUUGGACUGUUCGACAUGAGGCCCCUGCAGGGCG
Raf-1 RBD (GST-RBD) [3]
  binding result: binds

B4: clone 21.06 (ssRNA)
RNA: GGGAGAUCAGAAUAAACGCUCAACUGAUCAAUGGCGUACAAUGGAUUCGUUCUCAUAACCAAAACCCUUACCCCUUGGACUGUUUCGACAUGAGGCCCCUGCAGGGCG
Raf-1 RBD (GST-RBD) [4]
  binding result: binds

B5: clone 21.04 (ssRNA)
RNA: B4 RNA with U50C, U83C
Raf-1 RBD (GST-RBD) [4]
  binding result: binds

B6: clone 21.01 (ssRNA)
RNA: B4 RNA with U83A
Raf-1 RBD (GST-RBD) [3]
  binding result: binds

B7: clone 21.05 (ssRNA)
RNA: B4 RNA with C72U, U83C
Raf-1 RBD (GST-RBD) [4]
  binding result: binds

B8: clone 21.03 (ssRNA)
RNA: B4 RNA with U83C
Raf-1 RBD (GST-RBD) [4]
  binding result: binds

B9: RNA aptamer SEQ ID NO:28 (3'-truncated) (ssRNA)
RNA: GGGAGUGGAGGAAUUCAUCGAGGCAUAUGUCGACUCCGUCUUCCUUCAAACCAGUUAUAAAUUGGUUUUAGCAUAUGCCU
Raf-1 RBD (GST-RBD) [1]
  Kd: 176 nM

B10: RNA aptamer SEQ ID NO:25 (ssRNA)
RNA: GGGAGUGGAGGAAUUCAUCGAGGCAUAUGUCGACUCCGUCUUCCUUCAAACCAGUUAUAAAUUGGUUUUAGCAUAUGCCUUAGCGACAGCAAGCUUCUGC
Raf-1 RBD (GST-RBD) [1]
  Kd: 124 nM

B11: clone 21.08 (ssRNA)
RNA: GGGAGAUCAGAAUAAACGCUCAAUUGAAGAUCGUACAAUGGAUUCGAUCAUAACCCGAAGUUUUUAAACACUCUUUACCUGUAUUCGACAUGAGGCCCCUGCAGGGCG
Raf-1 RBD (GST-RBD) [4]
  binding result: binds

B12: clone 21.02 (ssRNA)
RNA: GGGAGAUCAGAAUAAACGCUCAACUGAUCAAUGGCGUACAAUGGAUUCGUUCUCAUAACCAAAACCCUUACCCCUGGACUGAUUCGACAUGAGGCCCCUGCAGGGCG
Raf-1 RBD (GST-RBD) [4]
  binding result: binds
